Consider four molecules from US20090232801A1 (ABBOT LABORATORIES, published 2009).

The target of experiment [1] is T1, Aβ(1-42) globulomer (human).
T1 construct: the definition mentions n=12-14 for late assembly forms; also called human A-beta oligomer antigen (1-42); Aβ(1-42) globular oligomer
Briefly: competition ELISA, Expt. 3: unlabelled antibody against biotinylated Mu8F5 on coated human A-beta oligomer antigen (1-42). As for the experimental part:
(§1) MaxiSorp ELISA plates (Nalge Nunc International) were coated overnight at 4° C. with 100 μl/well of 5.0 μg/ml human A-beta oligomer antigen (1-42) (Abbott Biosciences Corporation, Worcester, Mass.) in PBS, washed with Wash Buffer (PBS containing 0.1% Tween 20), and blocked for 1 hr at room temperature with 340 μl/well of SuperBlock Blocking Buffer in PBS (Pierce Chemical Company). After washing with Wash Buffer, a mixture of biotinylated Mu8F5 (1.0 μg/ml final concentration) and competitor antibody (Mu8F5 or Hu8F5 starting at 27 μg/ml final concentration and serially diluted 3-fold) in 100 μl/well of 5% Superblock Blocking Buffer in PBS was added in triplicate. As a no-competitor control, 100 μl/well of 5% Superblock Blocking Buffer in PBS was used. After incubating the plates for 2 hrs at room temperature, and washing with Wash Buffer, bound antibodies were detected using 100 μl/well of 1 μg/ml HRP-conjugated streptavidin (Pierce Chemical Company) in 5% Superblock Blocking Buffer in PBS. After incubating for 30 min at room temperature, and washing with Wash Buffer, color development was performed by adding 100 μl/well of ABTS Peroxidase Substrate/Peroxidase Solution B (KPL). […] Absorbance was read at 415 nm.
(§2) The affinity of Hu8F5 to human A-beta oligomer antigen (1-42) was analyzed by competition ELISA as described in Materials and Methods. […]
A general note: An ELISA detects its analyte on a solid surface through an enzyme-linked reagent.

The target in experiment [2] is T1, Aβ(1-42) globulomer. Put plainly: competition ELISA, Expt. 1: unlabelled antibody against biotinylated Mu8F5 (1.0 µg/ml) on coated human A-beta oligomer antigen (1-42). As for the experimental part:
as §1, §2

The target in experiment [3] is T1, Aβ(1-42) globulomer. Put plainly: competition ELISA, average of 3 experiments: unlabelled antibody against biotinylated Mu8F5 on coated human A-beta oligomer antigen (1-42). As for the experimental part: as §1, §2
In experiment [4] the target is T1, Aβ(1-42) globulomer. Briefly: competition ELISA, Expt. 2: unlabelled antibody against biotinylated Mu8F5 on coated human A-beta oligomer antigen (1-42). As for the experimental part: as §1, §2
Experiment [5] has as its target T1, Aβ(1-42) globulomer. Briefly: competition ELISA, Expt. 1: competitor against biotinylated Mu8F5 on coated human A-beta oligomer antigen (1-42). As for the experimental part:
as §1, §2

For experiment [6], the target named is T1, Aβ(1-42) globulomer. Briefly: competition ELISA, average of 3 experiments: competitor against biotinylated Mu8F5 on coated human A-beta oligomer antigen (1-42). As for the experimental part: as §1, §2
The target in experiment [7] is T1, Aβ(1-42) globulomer. Put plainly: competition ELISA, Expt. 2: competitor against biotinylated Mu8F5 on coated human A-beta oligomer antigen (1-42). As for the experimental part: as §1, §2
In experiment [8] the target is T1, Aβ(1-42) globulomer. Put plainly: competition ELISA, Expt. 3: competitor against biotinylated Mu8F5 on coated human A-beta oligomer antigen (1-42). As for the experimental part: as §1, §2
The target of experiment [9] is T2, Aβ(1-42) monomer, HFIP pretreated (human).
T2 construct: Human Aβ(1-42), Bachem H-1368, monomer preparation in Pluronic F68 buffer; also called Aβ42 monomer
T2 sequence (peptide, as listed by the source): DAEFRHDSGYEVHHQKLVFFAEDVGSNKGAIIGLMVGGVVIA
Put plainly: dot blot, 10 pmol antigen on nitrocellulose, 0.2 µg/ml antibody, densitometry. As for the experimental part: (§3) The dot blot was developed with a development solution made from 1 tablet of NBT/BCIP (Roche) dissolved in 20 mL H₂O for 5 min. The development was stopped by intense washing of the dot blot with H₂O. Quantitative evaluation was done using a densitometric analysis (GS800 densitometer (BioRad) and software package Quantity one, Version 4.5.0 (BioRad)) of the dot-intensity. Only the dots for 10 pmol Aβ antigen were evaluated. Results for the Discrimination of Aβ Monomer Against Aβ Globulomer by Dot Blot Method: Comparison of 8F5hum8 Versus 4G8.
(§4) The humanized monoclonal antibody 8F5hum8 (0.2 μg/ml) were used for detection with an anti-human IgG coupled to alkaline phosphatase as secondary antibody and the staining reagent NBT/BCIP (Roche Diagnostics, Mannheim). The detection signal was analyzed in its intensity (reflective density=RD) via a densitometer (GS 800, Biorad, Hercules, Calif., USA) at an antigen concentration of 10 pmol. At this concentration for every Aβ-form, the measured reflective density was in the linear range of the densitometer detection.

The target of experiment [10] is T3, Aβ(1-40) monomer (human).
T3 construct: Human Aβ(1-40), Bachem H-1194, HFIP treated and dissolved in DMSO; also called Aβ40
T3 sequence (peptide, as listed by the source): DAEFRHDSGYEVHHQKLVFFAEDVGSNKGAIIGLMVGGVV
Described as above. As for the experimental part: as §3, §4

Experiment [11] has as its target T1, Aβ(1-42) globulomer. The experiment is described as above. As for the experimental part:
as §3, §4

The target of experiment [12] is T1, Aβ(1-42) globulomer. Briefly: dot blot densitometry; reference: Aβ(1-40) monomer. As for the experimental part: as §3, §4
(§5) Discrimination of anti-Aβ-antibodies of Aβ1-40 monomer and Aβ1-42 monomer. The discrimination was calculated as the ratio of detection signal of Aβ1-42 globulomer and Aβ1-42 monomer, respectively Aβ1-40 monomer.

For experiment [13], the target named is T1, Aβ(1-42) globulomer. Briefly: dot blot densitometry; reference: Aβ(1-42) monomer. As for the experimental part:
as §3, §4, §5

Numbering of substitutions follows the chain as printed. Names may count otherwise.

B1: murine monoclonal antibody 8F5 (antibody, V domains shown)
VH: EVQLVESGGGLVQPGGSLKLSCAASGFTFSSYGMSWVRQTPDKRLELVASINSNGGSTYYPDSVKGRFTISRDNAKNTLYLQMSSLKSEDTAMYYCASGDYWGQGSTLTVSS
VL: DVVMTQTPLSLPVSLGDQASISCRSSQSLVYSNGDTYLHWYLQKPGQSPKLLIYKVSNRFSGVPDRFSGSGSGTDFTLKISRVEAEDLGVYFCSQSTHVPWTFGGGTKLEIK
notes: Mouse monoclonal antibody; also called Mu8F5; mouse 8F5 antibody
With B1, the IC50 in [1] was found to be 5.81 µg/mL; in experiment [2], 4.58 µg/mL; in experiment [3] it was 5.08 µg/mL; in experiment [4], 4.87 µg/mL.

B2: Hu8F5v1 (humanized 8F5, heavy chain version 1) (antibody, V domains shown)
VH: EVQLVESGGGLVQPGGSLRLSCAASGFTFSSYGMSWVRQAPGKGLEWVASINSNGGSTYYPDSVKGRFTISRDNAKNTLYLQMNSLRAEDTAVYYCASGDYWGQGTLVTVSS
VL: B1 VL with V2I, T7S, S14T, L15P, D17E, Q18P, L88V, F92Y, L109V
notes: Human IgG1/kappa, expressed in 293T/17 cells from modified pVg1.D.Tt (gamma-1 changed to z, non-a allotype: D356E, L358M, EU index) and pVk; also called Hu8F5VHv1 + Hu8F5VL
For B2, the IC50 came to 6.28 µg/mL in experiment [5], 6.36 µg/mL in [6], 6.85 µg/mL in [7] and 5.93 µg/mL in [8].

B3: Hu8F5v2 (humanized 8F5, heavy chain version 2) (antibody, human IgG1, V domains shown)
VH: B2 VH with W47L
VL: B1 VL with V2I, T7S, S14T, L15P, D17E, Q18P, L88V, F92Y, L109V
notes: Human IgG1/kappa, as for Hu8F5v1; The heavy chain differs from version 1 by the additional mouse residue at position 47 (W47L mutation of the Hu8F5VH gene); also called Hu8F5VHv2 + Hu8F5VL
Regarding B3, the IC50 in experiment [5] was determined as 6.29 µg/mL; in [6], 6.99 µg/mL; in [7], 8.12 µg/mL; in [8], 6.56 µg/mL.

B4: humanized monoclonal antibody 8F5hum8 (antibody, V domains shown)
VH: B2 VH with W47L
VL: DIVMTQSPLSLPVTPGEPASISCRSSQSLVYSNGDTYLHWYLQKPGQSPKLLIYKVSNRFSGVPDRFSGSGSGTDFTLKISRVEAEDVGVYYCSQSTHVPWTFGGGTKVEIKR
notes: It was detected with anti-human IgG; also called humanized antibody 8F5; mMAb 8F5hum8
Consider B4, for which the “Reflective Density (RD) [10 pmol]” value amounted to 1.3 RD in [9], 0.04 RD in experiment [10] and 2.2 RD in [11]. For the same molecule, the “Ratio RD Aβ(1-42) globulomer/RD Aβ(1-40) monomer” value in experiment [12] was 59. Also, the “Ratio RD Aβ(1-42) globulomer/RD Aβ(1-42) monomer” value in [13] was 1.6.

What is called IC50 is the concentration that inhibits the measured activity by half.
